Assay results taken from patent publication US20190375835A1.

How the values were obtained:
macrophages (FcR) = assay: cell-based or functional assay
soluble TNF-alpha = soluble TNF-alpha (UniProt P01375); assay: cell-based or functional assay
soluble TNF-alpha, sequence (P01375 77-233 limits assumed): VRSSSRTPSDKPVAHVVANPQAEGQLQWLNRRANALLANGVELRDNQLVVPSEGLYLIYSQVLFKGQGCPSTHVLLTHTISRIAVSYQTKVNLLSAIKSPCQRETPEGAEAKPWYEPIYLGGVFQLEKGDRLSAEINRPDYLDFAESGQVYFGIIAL

phagocytosis (MFI 37°C - MFI 4°C) in the presence of IVIg 1 mg/ml (macrophages (FcR))	phagocytosis value (MFI 37°C - MFI 4°C, arbitrary unit) (soluble TNF-alpha)	Substance
6.72 MFI	12.5 MFI	Humira antibody from Abbott (commercial adalimumab)
13.3 MFI	15 MFI	transgenically produced adalimumab antibody (purified from the milk of transgenic goats, glycosylated)
